Publication doi:10.1101/2021.06.01.446672 (bioRxiv, 2021)

B1: PYP-binding protein (PBP) from Rhodobacter capsulatus (natural protein, UniProt D5AR21 1-142, looked up)
chain: MDIVGQLMTDNGRYTFRSDTLNLRVTGDFPEWVMAAAAEMVGIVARREVDSKIDELQALVEFGEASEIEIDSVKYDAKERFEIIPQCVVTMGRTDYRWVAPEGRAKHCATFDGNPVTRVHDMSMTRNDSFLDNENGVDTSGH
B2: Photoactive yellow protein from Rhodobacter capsulatus (Rc-PYP) (natural protein, UniProt O69138 1-124, looked up)
chain: MEIIPFGTNDIDNILAREPARAESLPFGAVLLDRMGRIAKYNKAEGLIAGRDPSTVIGRDFFNEIAPCAKGKRFHGEFLKFNRTGQANVMLDYKFNYKGAEVAVKIHLKSQPDGQFCWLFVKRA
modifications: chromophore (protonated in pUV, deprotonated in pBL; isomerised on photoexcitation)

Legend:
SEC = biological target: the molecule itself; assay: SEC
[1] = biological target: B1; assay: transient absorption
[2] = biological target: B1; assay: transient grating

Row | Binder | stoichiometry N (SEC) | kon [1] [M⁻¹ s⁻¹] | kon [2] [M⁻¹ s⁻¹]
1 | B1 | 2 | – | –
2 | B2 | – | 1.2e+06 | 1.1e+06
